# According to US10704030B2, “P450-BM3 variants with improved activity” (Codexis, Inc., priority 2015, dated 2020):
# Legend:
# Format in all cases: biochemical
# [1] = Validation of generalist properties: oxidation of loratadine by lyophilized P450-BM3 variant, UPLC-MS; conditions: for % Conv. / TON: [Loratadine] = 1 mM; for TON: TON = [substrate]*% conversion/[P450]
# Protocol: (§1) For the production of lyophilized protein powders, LB agar plates supplemented with chloramphenicol (30 μg/mL) were streaked with E. coli containing a desired B. megaterium P450-BM3 variant in an IPTG-inducible vector. The plates were grown at 37° C. for 16 hrs before single clones were selected to inoculate a 15 mL Falcon™ tube (Fisher) containing TB media (3 mL) supplemented with chloramphenicol (30 μg/mL). The tube was shaken at 200 rpm, 30° C., and 85% humidity for 20-24 h to grow the cultures to saturation. Then, 2.5 mL of the overnight culture was used to inoculate sterile 1 L flasks containing TB medium (250 mL) supplemented with chloramphenicol (30 μg/mL), trace element solution (as described above), and 0.05 g/L ammonium iron (III) citrate. After being shaken at 250 rpm, 30° C., and 85% humidity to an OD600 of 0.8-1.2, P450 expression was induced by addition of IPTG (500 uM) and the heme precursor 5-aminolevulinic acid (5-ALA) to a final concentration of 500 uM. The cultures were grown for additional 20-24 hours and centrifuged in pre-weighed 250 mL centrifuge bottles for 20 minutes at 4000 rpm, 4° C. The supernatants were discarded, and the centrifuge bottles containing cell pellets were weighed. The pellets were resuspended in 50 mM potassium phosphate buffer with 2 mM DTT, pH 8.0 (5 mL of buffer per gram of cell pellet). The cells were lysed using a microfluidizer homogenizer, and the suspensions of cells and lysate were collected in sterile 50 mL centrifuge tubes. The samples were centrifuged for 30 minutes at 10,000 rpm, 4° C. The clarified lysate was collected into a plastic petri plate and frozen at −80° C. prior to lyophilization. The enzyme-containing lysates were lyophilized using standard methods known in the art.
# (§2) Enzyme stocks (˜12 μM) were prepared by dissolving ˜20 mg of each enzyme in 100 mM potassium phosphate buffer, pH 8.0 (1 mL). The concentration of each enzyme stock solution was determined by the UV-visible absorption spectroscopy (after centrifugation to remove particulates) and diluted to standardize at 12 μM heme protein. Substrate solutions were prepared by dissolving each substrate in DMSO to reach a final concentration of 20 mM or 40 mM. Reaction mix (235 μL) followed by enzyme solution (50 μL) was added to the plates. The substrate stock solution was added to the enzyme solutions (15 μL at the two different concentrations). Each reaction contained 100 mM potassium phosphate, 1.0 mM NADP+, 25 mM glucose, 0.5 mg/mL glucose dehydrogenase, 5% DMSO and substrate at 1 or 2 mM. Loratadine, imatinib, and gefitinib (See, FIG. 1) were selected as substrates in addition to diclofenac to validate improved BM3 variants. The reactions were shaken at 450 rpm at 30° C. over 24 hours. All reactions were diluted with acetonitrile to a final concentration of 0.5 mM substrate. The plates were then centrifuged at 3,000 g for 1 hour at 20° C. The supernatant was diluted 1:1 with acetonitrile, filtered using a 0.4 micron filter, and analyzed by UPLC-MS.
# (§3) For UPLC-MS analysis, the quenched and filtered reactions were transferred to 96-well HTP plates for analysis by UPLC on a Waters Acquity H-class system equipped with an autosampler. 1 uL of quenched sample was injected onto an Acquity UPLC HSS T3 column, 100 Å, (1.8 um; 2.1×100 mm). The column was eluted at a constant flow rate of 0.6 mL/min; conditions with solvent A (0.05% trifluoroacetic acid v/v, in H2O) and solvent B (0.05% trifluoroacetic acid v/v, in acetonitrile) used to elute the products of the reaction were: 0-2 min, A/B 95:5; 2-2.9 min, A/B 5:95; 2.9-3 min, A/B 95:5; 3-3.5 min, A/B 95:5. Column eluent was monitored by PDA (200-600 nm) prior to MS analysis in positive ESI mode (desolvation temperature 350° C., 3.25 kV spray voltage, cone voltage 25V). The column eluent was diverted to waste for the first 0.7 minutes of the run. For the remainder of the LC run, both MS (m/z 95-600 scan range) and MS/MS were collected. […]
# [2] = Validation of generalist properties: oxidation of imatinib by lyophilized P450-BM3 variant, UPLC-MS; conditions: for % Conv. / TON: [Imatinib] = 1 mM; for TON: TON = [substrate]*% conversion/[P450]
# Protocol: as §1, §2, §3
# [3] = Validation of generalist properties: oxidation of gefitinib by lyophilized P450-BM3 variant, UPLC-MS; conditions: for % Conv. / TON: [Gefitinib] = 1 mM; for TON: TON = [substrate]*% conversion/[P450]
# Protocol: as §1, §2, §3
# [4] = Validation of generalist properties: oxidation of diclofenac by lyophilized P450-BM3 variant, UPLC-MS; conditions: for % Conv. / TON: [Diclofenac] = 1 mM; for TON: TON = [substrate]*% conversion/[P450]
# Protocol: as §1, §2, §3
Molecule,% Conv. [1],TON [1],"performance (% conversion at 1 mM substrate loading), in words ([1]; loratadine, 1 mM substrate loading)",% Conv. [2],TON [2],"performance (% conversion at 1 mM substrate loading), in words ([2]; imatinib, 1 mM substrate loading)",% Conv. [3],TON [3],"performance (% conversion at 1 mM substrate loading), in words ([3]; gefitinib, 1 mM substrate loading)",% Conv. [4],TON [4],"performance (% conversion at 1 mM substrate loading), in words ([4]; diclofenac, 1 mM substrate loading)"
"SEQ ID NO: 4: P450-BM3 parental backbone from the commercially available MCYP panel (MCYP-0343; Codexis) (protein, P450_BM3) MTIKEMPQPKTFGELKNLPLLNTDKPVQALMKIADELGEIFKFEAPGCVTRYLSSQRLIKEACDESRFDKNLSQALKFARDFAGDGLVTSWTHEINWKKAHNILLPSFSQQAMKGYHAMMVDIAVQLVQKWERLNADEHIEVSEDMTRLTLDTIGLCGFNYRFNSFYRDQPHPFIISMVRALDEVMNKLQRANPDDPAYDENKRQCQEDIKVMNDLVDKIIADRKARGEQSDDLLTQMLNGKDPETGEPLDDGNISYQIITFLIAGHETTSGLLSFALYFLVKNPHVLQKVAEEAARVLVDPVPSYKQVKQLKYVGMVLNEALRLWPTAPAFSLYAKEDTVLGGEYPLEKGDEVMVLIPQLHRDKTIWGDDVEEFRPERFENPSAIPQHAFKPFGNGQRACIGQQFALHEATLVLGMMLKHFDFEDHTNYELDIKETLTLKPEGFVVKAKSKKIPLGGIPSPSTEQSAKKVRKKAENAHNTPLLVLYGSNMGTAEGTARDLADIAMSKGFAPQVATLDSHAGNLPREGAVLIVTASYNGHPPDNAKQFVDWLDQASADEVKGVRYSVFGCGDKNWATTYQKVPAFIDETLAAKGAENIADRGEADASDDFEGTYEEWREHMWSDVAAYFNLDIENSEDNKSTLSLQFVDSAADMPLAKMHGAFSTNVVASKELQQPGSARSTRHLEIELPKEASYQEGDHLGVIPRNYEGIVNRVTARFGLDASQQIRLEAEEEKLAHLPLAKTVSVEELLQYVELQDPVTRTQLRAMAAKTVCPPHKVELEALLEKQAYKEQVLAKRLTMLELLEKYPACEMKFSEFIALLPSIRPRYYSISSSPRVDEKQASITVSVVSGEAWSGYGEYKGIASNYLAELQEGDTITCFISTPQSEFTLPKDPETPLIMVGPGTGVAPFRGFVQARKQLKEQGQSLGEAHLYFGCRSPHEDYLYQEELENAQSEGIITLHTAFSRMPNQPKTYVQHVMEQDGKKLIELLDQGAHFYICGDGSQMAPAVEATLMKSYADVHQVSEADARLWLQQLEEKGRYAKDVWAG",++++ (15.01-20.00),‡‡‡‡ (10000-50000),moderate activity,++ (5.01-10.00),‡‡ (1001-5000),low activity,+ (0-5.00),‡ (0-1000),low activity,+++ (10.01-15.00),‡‡‡ (5001-10000),moderate activity
"SEQ ID NO: 2: P450-BM3 parental backbone from the commercially available MCYP panel; a chimera, P450 domain 86% identical to Bacillus subtilis P450 (protein, P450_BM3, P450-BM3 parental backbone from the commercially available MCYP panel; a chimera, P450 domain 86% identical to Bacillus subtilis P450) MLMKQASAIPQPKTYGPLKNLPHLEKEQLSQSLWRIADELGPIFRFDFPGVSSVFVSGHNLVAEVCDEERFDKSIEGALEKVRAFSGDGLATSWTHEPNWRKAHNILMPTFSQRAMKDYHEKMVDIATQLIQKWSRLNPNEEIDVADDMTRLTLDTIGLCGFNYRFNSFYRDQPHPFITSMVRALDEAMNKLQRANPDDPAYDENKRQFQEDIKVMNDLVDSIIAERRANGDQDEKDLLARMLNVEDPETGEKLDDENIRFQIITFLIAGHETTSGLLSFAIYCLLTHPEKLKKAQEEADRVLTDDTPEYKQIQQLKYIRMVLNETLRLYPTAPAFSLYAKEDTVLGGEYPISKGQPVTVLIPKLHRDQNAWGPDAEDFRPERFEDPSSIPHHAYKPFGNGQRACIGMQFALQEATMVLGLVLKHFELINHTGYELKIKEALTIKPDDFKITVKPRKTAAINVQRKEQAEQSAKKVRKKAENAHNTPLLVLYGSNMGTAEGTARDLADIAMSKGFAPQVATLDSHAGNLPREGAVLIVTASYNGHPPDNAKQFVDWLDQASADEVKGVRYSVFGCGDKNWATTYQKVPAFIDETLAAKGAENIADRGEADASDDFEGTYEEWREHMWSDVAAYFNLDIENSEDNKSTLSLQFVDSAADMPLAKMHGAFSTNVVASKELQQPGSARSTRHLEIELPKEASYQEGDHLGVIPRNYEGIVNRVTARFGLDASQQIRLEAEEEKLAHLPLAKTVSVEELLQYVELQDPVTRTQLRAMAAKTVCPPHKVELEALLEKQAYKEQVLAKRLTMLELLEKYPACEMKFSEFIALLPSIRPRYYSISSSPRVDEKQASITVSVVSGEAWSGYGEYKGIASNYLAELQEGDTITCFISTPQSEFTLPKDPETPLIMVGPGTGVAPFRGFVQARKQLKEQGQSLGEAHLYFGCRSPHEDYLYQEELENAQSEGIITLHTAFSRMPNQPKTYVQHVMEQDGKKLIELLDQGAHFYICGDGSQMAPAVEATLMKSYADVHQVSEADARLWLQQLEEKGRYAKDVWAG",+ (0-5.00),‡ (0-1000),–,++ (5.01-10.00),‡‡ (1001-5000),–,+ (0-5.00),‡ (0-1000),–,+ (0-5.00),‡ (0-1000),–
